± gives the standard deviation of the averaged measurements.
B1: library; numbered along this chain (parent)
chain: MNIQIGELAKRTACPVVTIRFYEQEGLLPPPGRSRGNFRLYGEEHVERLQFIRHCRSLDMPLSDVRTLLSYRKRPDQDCGEVNMLLDEHIRQVESRIGALLELKHHLVELREACSGARPAQSCGILQGLSDCVCDTRGTTAHPSD

Experiments:
[1] = variants of: B1; assay: sfGFP reporter fluorescence (15 h) (µM FITC); higher = higher leak; conditions: library round: Round 1; ligand: none
How it was run: (§1)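 Readout was endpoint sfGFP fluorescence, converted to µM FITC through standard curves. Reactions were 1 μL of BL21 Star (DE3) PANOx-SP extract with pPbrR-sfGFP reporter, 30 μg/mL GamS and linear PbrR templates normalized to 5 nM, containing 1 µM lead chloride, 30 µM zinc acetate or no metal. Incubation lasted 15 hr at 30 °C, with up to three biological replicates.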

[2] = variants of: B1; assay: sfGFP reporter fluorescence (15 h) (µM FITC); higher = stronger transcriptional activation; conditions: library round: Round 1
How it was run: as §1

Variant	sfGFP reporter fluorescence [1]	sfGFP reporter fluorescence ([2]; ligand: 1 µM Pb)	sfGFP reporter fluorescence ([2]; ligand: 30 µM Zn)
N83T L107C G128M D135A	0.561 ± 0.031	1.15 ± 0.069	2.06 ± 0.28
D135S P143W	0.0694 ± 0.00085	0.0798 ± 0.0084	0.355 ± 0.051
L107C G128H	0.132 ± 0.0069	0.409 ± 0.075	1.66 ± 0.14
L100I	0.0611 ± 0.0014	0.0649 ± 0.0013	0.216 ± 0.019
G128I D131S	0.0878 ± 0.004	0.253 ± 0.025	1.43 ± 0.2
G128I D131C	0.0762 ± 0.0028	0.146 ± 0.018	0.618 ± 0.011
G128I D131E	0.0825 ± 0.0029	0.203 ± 0.022	1.34 ± 0.037
N83T L107C D135A P143T	0.1501 ± 0.0015	0.642 ± 0.046	1.85 ± 0.12
L129V D135A	0.0641 ± 0.00097	0.0619 ± 0.003	0.0639 ± 0.0027
D131T D135Y	0.074 ± 0.0013	0.0933 ± 0.014	0.801 ± 0.026
D131T D135A	0.0636 ± 0.0011	0.08075 ± 0.00021	0.365 ± 0.0092
L107I P143R	0.06365 ± 0.00021	0.0775 ± 0.0077	0.473 ± 0.02
R111L G128P	0.0584 ± 0.0015	0.0568 ± 0.0028	0.0542 ± 0.0045
R111L G128I	0.0666 ± 0.0024	0.0985 ± 0.0091	0.528 ± 0.024
I97A K104V	0.0886 ± 0.0059	0.303 ± 0.071	1.11 ± 0.076
L85Y K104V	0.0606 ± 0.0011	0.0629 ± 0.0018	0.223 ± 0.011
N83T R96A	0.0645 ± 0.00037	0.0756 ± 0.0031	0.0938 ± 0.0026
H105E	0.0625 ± 0.0011	0.06829 ± 0.00056	0.31 ± 0.016
D131M D135A	0.0704 ± 0.005	0.0869 ± 0.0074	0.573 ± 0.039
L107C G128I D135A P143K	0.787 ± 0.091	1.52 ± 0.079	2.47 ± 0.14
K104V V108K	0.109 ± 0.0044	0.316 ± 0.063	1.44 ± 0.15
K104V V108R	0.109 ± 0.0031	0.386 ± 0.041	1.52 ± 0.1

From the supplement of paper PMC12783771
